{"source": "patent US11773160", "key": {"[1]": {"target": "IL-2R on murine splenocytes (C57BL/6)", "experiment": "cell-based or functional assay"}, "[2]": {"target": "trimeric IL-2 receptor on HEK-Blue IL-2 reporter cells (UniProt P01589)", "sequence (P01589 22-272 limits assumed, chain 1 of 3)": "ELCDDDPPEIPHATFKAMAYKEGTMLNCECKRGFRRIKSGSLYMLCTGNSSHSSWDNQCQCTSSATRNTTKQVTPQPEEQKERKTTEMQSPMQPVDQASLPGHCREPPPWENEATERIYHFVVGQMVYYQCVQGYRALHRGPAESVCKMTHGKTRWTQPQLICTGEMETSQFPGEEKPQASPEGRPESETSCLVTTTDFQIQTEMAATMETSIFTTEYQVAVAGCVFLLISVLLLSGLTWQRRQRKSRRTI", "sequence (P14784 27-551 limits assumed, chain 2 of 3, further chain)": "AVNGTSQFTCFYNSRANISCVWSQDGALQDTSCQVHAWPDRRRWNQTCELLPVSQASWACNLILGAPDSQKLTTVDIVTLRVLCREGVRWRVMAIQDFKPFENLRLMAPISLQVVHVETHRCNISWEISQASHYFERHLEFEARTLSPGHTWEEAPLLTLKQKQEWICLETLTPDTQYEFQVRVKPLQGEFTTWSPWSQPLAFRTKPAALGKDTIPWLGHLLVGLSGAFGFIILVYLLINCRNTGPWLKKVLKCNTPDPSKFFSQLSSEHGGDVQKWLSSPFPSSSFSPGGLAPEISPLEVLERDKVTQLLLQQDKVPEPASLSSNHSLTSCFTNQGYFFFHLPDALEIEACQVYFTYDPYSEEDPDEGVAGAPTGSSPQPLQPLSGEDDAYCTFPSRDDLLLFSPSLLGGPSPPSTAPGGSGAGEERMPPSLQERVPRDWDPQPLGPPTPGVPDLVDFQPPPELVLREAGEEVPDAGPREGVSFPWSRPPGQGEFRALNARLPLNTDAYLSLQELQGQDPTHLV", "sequence (P31785 23-369 limits assumed, chain 3 of 3, further chain)": "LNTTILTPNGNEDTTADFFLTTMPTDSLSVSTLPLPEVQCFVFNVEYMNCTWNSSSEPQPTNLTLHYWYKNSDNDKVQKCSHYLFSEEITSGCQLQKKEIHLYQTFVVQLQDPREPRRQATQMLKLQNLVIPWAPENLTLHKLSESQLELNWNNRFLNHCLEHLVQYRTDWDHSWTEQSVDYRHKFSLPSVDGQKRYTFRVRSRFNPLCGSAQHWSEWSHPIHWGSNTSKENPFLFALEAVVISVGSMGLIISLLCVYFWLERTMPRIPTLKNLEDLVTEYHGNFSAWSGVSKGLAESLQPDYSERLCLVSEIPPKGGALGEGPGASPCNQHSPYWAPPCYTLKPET", "experiment": "cell-based or functional assay"}}, "data": [{"substance": "Proleukin (aldesleukin) (from UniProt P60568 22-153) (ligand)", "values": [{"measurement": "EC50 CD8 cells (nM), pSTAT5 MFI", "setting": "[1]", "value": 4.1, "unit": "nM"}, {"measurement": "EC50 NK cells (nM), pSTAT5 MFI", "setting": "[1]", "value": 1.4, "unit": "nM"}, {"measurement": "EC50 Treg cells (nM), pSTAT5 MFI", "setting": "[1]", "value": "< 0.016", "unit": "nM"}, {"measurement": "EC50 (M), SEAP of HEK-Blue IL-2 reporter cells", "setting": "[2]", "value": "4.28e-12", "unit": "M"}]}]}
